Results on 1 protein are retold here after FireProtDB (doi:10.1016/j.jmb.2005.09.091).

For this data set the following is noted: Kitasatospora aureofaciens, Thermal, CD, whole UniProt chain shown.

B1: Guanyl-specific ribonuclease Sa wild type, P05798 (protein)
chain: DVSGTVCLSALPPEATDTLNLIASDGPFPYSQDGVVFQNRESVLPTQSYGYYHEYTVITPGARTRGTRRIITGEATQEDYYTGDHYATFSLIDQTC
The Tm is the temperature at which the thermal transition is half complete. Regarding B1, the Tm came out at 39.9 °C (pH 3, Glycine 30 mM); 47.8 °C (pH 7, Mops 30 mM); 38.7 °C (pH 8.5, Mops 30 mM). Besides, the “unfolding enthalpy (van 't Hoff)” value reads like this: (pH 3, Glycine 30 mM) 81 kcal/mol; (pH 7, Mops 30 mM) 91 kcal/mol; (pH 8.5, Mops 30 mM) 84 kcal/mol.
